Laboratory results published in patent US12686712B2, “Antibody, related use, pharmaceutical composition including method for diagnosing fungal infections, fungal infection diagnosis kit and method for treating fungal infections” (priority 2020, dated 2026).
Where “and” joins values, the source holds several entries; their conditions need not be identical. Equal values may be shown once.

B1: AF1/CC5: murine IgM monoclonal antibody against chitooligomers (chitotriose); VH SEQ ID NO: 19, VL SEQ ID NO: 20 (antibody, listed as Mus musculus, V domains shown)
VH: STGQVKLEESGGGLVQPGGSMKLSCAASGFTFSDAWMDWVRQSPEKGLEWVAEIRSKANNHATYYAESVKGRFTISRDDSKSSVYLQMNSLRAEDTGIYYCTRHRYDGFDYWGQGTTLTFP
VL: DYFLASQGEVTMTCSASSSISYMHWYQQKPGTSPKRWIYDTSKLASGVPARFSGSGSGTSYSLTISSMEAEDAATYYCHQRSSYPCTFGAGTKLELKRADAAPTVSLETKTS

How the values were obtained:
[1] = system: C. neoformans strain H99; assay: Survival trial, lethal i.p. challenge; assay type: in vivo, Balb/C line mice; conditions: AmB standard dose 2.5 mg/kg alone; data not provided
Experimental: Balb/C line mice (n=7) were lethally challenged via i.p. with 10^5 cells in PBS of C. neoformans (H99) and treated 2 hours later with 100 μl of AmB (2.5 mg/kg and 0.25 mg/kg), 100 μl of AcM (85 μg/ml) and 100 μl of AcM and AmB combined solution (0.25 mg/kg). Control animals were challenged only by C. neoformans (H99) or only with 100 μl of a solution of PBS, AmB (2.5 mg/kg) or AcM (85 μg/ml) without fungus (adapted from Liedke et al.). Survival rate was achieved and analysis was extended up to 90 days after infection, presenting statistical value with p<0.005.
Mice were lethally challenged with inoculant i.p. of 1×10^5 cells of yeast C. neoformans strain H99. After 2 hours, they were treated with PBS (negative control), 85 μg/animal of AcM (HC6/DD11) in isolate form, 0.25 or 2.5 mg/kg of AmB in isolate form, and in synergic form, AcM keeping test concentrations. Treatments were repeated for another two times, with 10-day interval.

[2] = system: C. neoformans; assay: Minimum inhibiting concentration (MIC) assay, alone or in association with AmB or FLC; assay type: cell-based, Cryptococcus neoformans; conditions: 48 hours at 37° C.
Experimental: C. neoformans cells were cultivated in RPMI 1640 buffered with MOPS in pH 7 at 10^5 cell/well density in 96-well plates in 200 μl final volume. Systems were supplemented with AcM at concentration (25 to 0.05 μg/ml), AmB (1 to 0.1 lμg/ml) or FLC (8 to 2 μg/ml), alone or in association. After 48 hours of incubation at 37° C. under agitation, cells were suspended by pipetting for spectrophotometer reading at 592 nm wavelength.
AcMs fungicide activity was tested through CIM test. […] It was assessed if AcMs association with AmB or FLC would trigger antifungal effects in sub-inhibiting concentrations, thus 1 μg/ml concentrations of AmB and 4 and 2 μg/ml to FLC in combination with AcMs different concentrations. To assess whether there was combining effect of AcMs with drug, it was used as drug action base in isolate form.

[3] = system: C. albicans; assay: Biofilm development, XTT reduction trial; assay type: cell-based, Candida albicans; conditions: AcM 25 μg/ml, 48 hours at 37° C., vs fungus without treatment, p<0.05
Experimental: (§1) C. neoformans (H99 and Cap67) and Candida albicans were cultivated in Sabouraud media for 24 hours at 30° C. Cellular suspensions were centrifuged for 5 minutes at 3000 g, washed 3 times in PBC and suspended in minimum media (20 mg/ml thiamin, 30 mm glucose, 26 mM glycine, 20 mM MgSO4, and 58.8 mM KH2PO4). Then, they were added to 96-well plates (100 μl/well—1×10^6 células/ml) and cultivated for 48 hours at 37° C. at presence of AcM (HC6/DD11 and AF1/CC5) and AcM anti-GXM 18B7 (only to H99) at 25 μg/ml concentration, keeping under agitation for 30 minutes, for AcM total homogenization with fungi. As control, drug AmB was used at 1 μg/ml concentration.
(§2) Two analysis systems were performed: in the first, cells were washed, so that non-adhering cells were removed and only cells bonded to biofilm under development remained; in the second system, cells were not washed and all cells adhered or not to substrate were quantified.
(§3) Viable cell metabolic activity in both trials was assessed by the method based on decrease of XTT (2-methoxy-4-nitro-5-sulfophenyl)-5-[(phenylamino) carbonyl]-2H-tetrazolium hydroxide) in spectrophotometer at 492 nm of wavelength.
(§4) AcMs were tested (25 μg/ml) against three fungus species (C. albicans, C. neoformans—H99—and acapsular mutant of C. neoformans—Cap67), with control by AcM anti-GXM 18B7 (25 μg/ml) only to H99. In the first assay (FIGS. 14A and B), cellular suspensions were washed to remove non-adhering cells to substrate. […] In second assay (FIGS. 14C and D), cellular suspensions were not washed, and again AcM inhibited biofilm development (p<0.05) compared to cell not treated with antibodies. In both assays, cell growth was observed.

[4] = system: acapsular mutant of C. neoformans Cap67; assay: Biofilm development, XTT reduction trial; assay type: cell-based, Cryptococcus neoformans; conditions: AcM 25 μg/ml, 48 hours at 37° C., vs fungus without treatment, p<0.05
Experimental: as §1, §2, §3, §4

[5] = system: C. neoformans (H99); assay: Indirect ELISA against intact cells using poly-L-Lysine (PL); assay type: binding, Cryptococcus neoformans; conditions: 10^4 and 10^5 cells/ml
Experimental: (§5) For this test, C. neoformans (H99), Candida albicans, Giardia lamblia, human lung line cell A549 (ATCC), Escherichia coli and Staphylococcus aureus. Cells were washed in PBS three times and suspended at 10^7 cell/ml density in poly-L-Lysine (5 μg/ml in PBS) for adherence at night at 4° C. The next day, plates were blocked with PBS/BSA 5% and incubated for 1 hour at 37° C., then they are incubated for 1 hour at 37° C. with anti-chitooligomer AcM at 50 μg/ml concentration and diluted at 5 μg/ml. Then, washing with PBS/Tween 0.05% was performed for 3 times and anti-IgM murine peroxidase was added diluted 1:5000 and incubated for 2 hours at 37° C. Plates were washed again and TMB was added and incubated for 30 minutes at 37° C.
(§6) Reaction was stopped with HCl 1 N and reading with spectrophotometer at 450 nm. After this trial, seriated dilutions were performed at density of cells 10^7 until 10 cells/ml to fungi and 10^7 until 10^4 cells/ml to other cellular types and tested of AcM anti-chitooligomer at 25 μg/ml concentration, followed by the same procedures abovementioned. […]
(§7) In this trial, 10^7 cell/ml of C. albicans were used to perform an absorbance curve, in which it was observed that there was a 25 μg/ml concentration reliable signal of both AcM, as above such value the curve starts to enter in plateau, as provided in FIG. 9. […]

[6] = system: Candida albicans; assay: Immunofluorescence of AcM anti-chitooligomer against intact cells; assay type: binding; conditions: AcM 25 μg/mL, 1 h at 37° C.; anti-IgM Alexa 568; calcofluor
Experimental: Fungal cells (10^6 cells)) were fastened (cacodylate paraformolaldehyde buffer 4%; 30 min) and blocked later (PBS/BSA 1%; 1 hour). Then, they were incubated with AcM anti-chitooligomer(25 μg/mL; 1 h at 37° C.) After washing with PBS, cells were incubated with mouse anti-IgM antibody conjugated at Alexa 568 (SIGMA; 1:1000). After PBS washing, cells were incubated with 25 μM of white calcofluor (Invitrogen) and washed again. Cellular suspensions were assembled in glass blades and assessed under microscope Olympus AX70, coupled to camera system (QImaging Retiga 1300) and assessed in QCapture suite V2.46 software.
From reliable and ELISA and Dot Blot trials, biological activity validation tests. Thus, AcMs were used through immunofluorescence (IF), using the pathogen Candida albicans as template. AcMs were efficient at fungal cellular wall labeling, showing the same profile whenever standard marker is used (lectin), data not provided.

[7] = system: C. neoformans; assay: Melanization trial (L-DOPA); assay type: cell-based, Cryptococcus neoformans
Experimental: C. neoformans cultivation was performed as paragraph and cellular suspension (1×10^6 cells/ml) was cultivated for 72 hours in minimum media supplemented with 1 mM of L-DOPA in 96-well plate of U-shape bottom. Antibodies HC6/DD11 and AF1/CC5 were added to minimum media within 25 to 0.05 μg/ml concentration range. The plate was centrifuged and pigment development quantification was defined densitometrically upon image scanning by iBright FL1000 Invitrogen equipment.
AcM HC6/DD11 e AF1/CC5 established concentrations were 0.2 to 25 μg/ml. L-DOPA was used with substrate to melanization.
Pigmentation in C. neoformans was assessed through brown to black sedimentation observation in 96-well plate bottom. To document pigmentation or inhibition, plates were photographed over white surfaces (clear bottom), to enable differentiation between pigmented and non-pigmented populations. It shall be noted that every AcM dose presents fungal growth, however with negative pigmentation or partial inhibition.

[8] = system: C. neoformans H99; assay: Biofilm development, XTT reduction trial; assay type: cell-based, Cryptococcus neoformans; conditions: AcM 25 μg/ml, 48 hours at 37° C., vs fungus without treatment, p<0.05
Experimental: as §1, §2, §3, §4
AcMs were compared to AcM anti-GXM 18B7 concerning biofilm development inhibition.

[9] = system: C. albicans; assay: Indirect ELISA against intact cells using poly-L-Lysine (PL); assay type: binding, Candida albicans; conditions: 10^4 and 10^5 cells/ml
Experimental: as §5, §6, §7

Row | Molecule | death of infected animals [1] | concentration with fungicide effect (control drug alone) [2] | biofilm development (XTT reduction) ([3]; non-washed cells) | biofilm development (XTT reduction) ([3]; washed cells) | biofilm development (XTT reduction) ([4]; non-washed cells) | biofilm development (XTT reduction) ([4]; washed cells) | ELISA signal in cell saturation curve [5] | fungal cellular wall labeling by immunofluorescence [6] | melanization in lower concentrations ([7]; concentrations lower than 1.6 μg/ml, p>0.05) | AcM concentration with partial inhibition of melanization/pigmentation ([7]; series 25 to 0.2 μg/ml, 72 hours, 1 mM L-DOPA, p<0.05) | biofilm development (XTT reduction) ([8]; non-washed cells) | biofilm development (XTT reduction) ([8]; washed cells) | ELISA signal in cell saturation curve [9]
1 | C[C@@H]1[C@H](O)[C@@H](C)/C=C/C=C/C=C/C=C/C=C/C=C/C=C/[C@H](O[C@@H]2O[C@H](C)[C@@H](O)[C@H](N)[C@@H]2O)C[C@@H]2O[C@](O)(C[C@@H](O)C[C@@H](O)[C@H](O)CC[C@@H](O)C[C@@H](O)CC(=O)O[C@H]1C)C[C@H](O)[C@H]2C(=O)O [AmB, amphotericin polyene B, reference compound] | did not die | 1 µg/mL |  |  |  |  |  |  |  |  |  |  | 
2 | OC(Cn1cncn1)(Cn1cncn1)c1ccc(F)cc1F [FLC, Fluconazole] |  | 8 µg/mL |  |  |  |  |  |  |  |  |  |  | 
3 | B1 |  |  | reduced biofilm development significantly | reduced biofilm development significantly | reduced biofilm development significantly | reduced biofilm development significantly | a plateau to both cells was achieved | characteristic polar label | not significant inhibition | 3.2 µg/mL and 1.6 µg/mL | reduced biofilm development significantly | reduced biofilm development significantly | a plateau to both cells was achieved
